In patent US9567576B2, “Strain expressing FRSA and method for producing ethanol using same” (SOGANG UNIVERSITY RESEARCH FOUNDATION, priority 2012, dated 2017):

Assays:
[1] = target: Vibrio vulnificus FrsA, wild type, SEQ ID NO: 2, + dephospho-IIA^Glc (Vibrio vulnificus, UniProt Q8DF91); experiment: FrsA pyruvate decarboxylation in the presence of dephospho-IIA^Glc; format: biochemical
Text: (§1) Genomic DNA from V. vulnificus(3) was used as template and as primers Crrexp-F (5′-[…]-3′(SEQ ID NO: 13); BamHI restriction site is underlined) and Crrexp-R (5′-[…]-′3(SEQ ID NO: 14); PstI restriction site is underlined) are used to amplify crr gene of 522-bp in size encoding full length IIA^Glc. The amplified products were then digested with BamHI and PstI and cloned into a vector pQE30 to obtain pQE-crr. Phosphorylated and non-phosphorylated recombinant IIA^Glc proteins were overexpressed in E. coli JM109 in a medium comprising 1.0 mM phophoenolpyruvate or 1.0% glucose, respectively. […]
(§2) FrsA enzymatic analysis was performed in 50 mM sodium phosphate solution (pH 7.0) containing 1 mM DTT and various concentrations of pyruvate. […] The residual NADH in the reaction mixture was determined by measuring absorption at 340 nm. […] The amount of carbon dioxide dissolved in the reaction solution was quantified by spectrophotometry after the reaction solution was treated with 10 mM calcium hydroxide (10). Concentrations of the pyruvate and acetaldehyde in the cell lysates and reaction mixtures were determined using Pyruvate Assay Lit (BioVision, USA) and Acetaldehyde UV-method kit (Roche, USA), respectively according to the manufacturer's instruction. […]
(§3) Values of Km and Kcat were calculated as follows. […]

[2] = target: Vibrio vulnificus FrsA, wild type, SEQ ID NO: 2, + phospho-IIA^Glc (Vibrio vulnificus, UniProt Q8DF91); experiment: FrsA pyruvate decarboxylation in the presence of phospho-IIA^Glc; format: biochemical
Text: as §1, §2, §3

CC(=O)C(=O)O = experiment: FrsA-catalysed pyruvate decarboxylation, ADH/NADH coupled acetaldehyde assay; format: biochemical, Vibrio vulnificus; conditions: other: wild-type FrsA, pH 7.0, 37° C., 1 nM FrsA
Description: FrsA enzymatic analysis was performed in 50 mM sodium phosphate solution (pH 7.0) containing 1 mM DTT and various concentrations of pyruvate. To measure the amount of acetaldehyde produced from pyruvate, 2 mM NADH and 3.7 U of […] was added to the FrsA reaction mixture (8). Cell lysates from wild-type E. coli and frsA mutants (9) were used in the range of 0.005 to 1 mg in amount. The acetaldehyde reaction was initiated by adding FrsA (1 nM) and incubated at 37° C. for 5 min and stopped by adding 50 mM potassium hydrogen phthalate buffer (pH3.0). The residual NADH in the reaction mixture was determined by measuring absorption at 340 nm. For CO2 measurement, FrsA enzyme reaction was performed in 50 mM Tris-HCl buffer (pH 7.0). The amount of carbon dioxide dissolved in the reaction solution was quantified by spectrophotometry after the reaction solution was treated with 10 mM calcium hydroxide (10). Concentrations of the pyruvate and acetaldehyde in the cell lysates and reaction mixtures were determined using Pyruvate Assay Lit (BioVision, USA) and Acetaldehyde UV-method kit (Roche, USA), respectively according to the manufacturer's instruction. To increase the sensitivity of the Acetaldehyde UV-method kit, the reaction mixture was additionally treated with dye (50 ml of 1.0% Tween 20 solution containing 40 mg iodonitrotetrazolium chloride and 10 mg phenazine methosulfate) followed by absorption measurement at 490 nm (11).
Values of Km and Kcat were calculated as follows. The concentration of reaction products were calculated in the mM unit from the absorption values which were obtained for a total of 1 min for each substrate concentration (S). Then initial reaction rate (Vo) for each concentration of the substrate was determined (here the unit is mM(product)/sec/mg(enzyme)). […] Keat value expressed in the unit of sec^−1 was calculated by changing the unit weight of the enzyme to the concentration in mM in the calculated Vmax (mM(product)/sec/mg(enzyme)).

Sequence of Vibrio vulnificus FrsA, wild type, SEQ ID NO: 2, + phospho-IIA^Glc (Q8DF91 whole entry): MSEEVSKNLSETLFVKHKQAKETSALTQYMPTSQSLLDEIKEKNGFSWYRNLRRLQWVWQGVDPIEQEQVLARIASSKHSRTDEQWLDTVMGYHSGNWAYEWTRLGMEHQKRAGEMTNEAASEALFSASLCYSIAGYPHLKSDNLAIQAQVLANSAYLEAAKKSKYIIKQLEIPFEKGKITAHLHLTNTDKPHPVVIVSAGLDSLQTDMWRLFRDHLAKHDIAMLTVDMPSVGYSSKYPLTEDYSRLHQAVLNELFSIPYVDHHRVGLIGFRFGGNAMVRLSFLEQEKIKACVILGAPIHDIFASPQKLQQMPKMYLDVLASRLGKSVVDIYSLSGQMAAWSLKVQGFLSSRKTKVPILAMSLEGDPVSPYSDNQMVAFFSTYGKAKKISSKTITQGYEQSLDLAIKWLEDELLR
Sequence of Vibrio vulnificus FrsA, wild type, SEQ ID NO: 2, + phospho-IIA^Glc (A0A3Q0L1G8 entry or part of it, further chain): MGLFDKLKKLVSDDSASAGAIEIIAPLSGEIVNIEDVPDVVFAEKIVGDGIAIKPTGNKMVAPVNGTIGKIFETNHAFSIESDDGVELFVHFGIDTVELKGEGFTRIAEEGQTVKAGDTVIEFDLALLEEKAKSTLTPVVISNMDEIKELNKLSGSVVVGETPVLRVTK
Sequence of Vibrio vulnificus FrsA, wild type, SEQ ID NO: 2, + dephospho-IIA^Glc (A0A3Q0L1G8 entry or part of it): as the sequence (A0A3Q0L1G8 entry or part of it, further chain) above
Sequence of Vibrio vulnificus FrsA, wild type, SEQ ID NO: 2, + dephospho-IIA^Glc (Q8DF91 whole entry): as the sequence (Q8DF91 whole entry) above

Compound	Km [1] [µM]	Km [2] [µM]	Km (CC(=O)C(=O)O) [µM]	kcat (CC(=O)C(=O)O) [s⁻¹]	kcat/Km (CC(=O)C(=O)O) [M⁻¹ s⁻¹]
CC(=O)C(=O)O [pyruvate]	390 ± 30	390 ± 10	–	–	–
Vibrio vulnificus FrsA, wild type, SEQ ID NO: 2 (Vibrio vulnificus CMCP6)	–	–	390 ± 20	1372 ± 11	3.52e+06 ± 183000
